The source of these data is patent US20120316071A1 (published 2012).

For test [1], the target named is T1, rHuman CD44/Fc Chimera, CF (R&D Systems Cat#3660-CD) (human, UniProt P16070 21-220). Description: ECL Multispot (MSD), antigen spotted on plate, Fab in solution; blank spot 292.
The target in test [2] is T2, rHuman HGF R/c-MET/Fc Chimera, CF (R&D Systems Cat#358-MT/CF) (human, UniProt P08581 25-932). The test is described as above.
In test [3] the target is T3, rHuman P-Cadherin/Fc Chimera, CF (R&D Systems Cat#861-PC) (human, UniProt P22223 108-654). The description is as above.
Test [4] has as its target T4, rHuman Erythropoietin R/Fc Chimera, CF (R&D Systems Cat#963-ER) (human, UniProt P19235 25-250). The description is as above.
For test [5], the target named is T5, rHuman Notch-1/Fc Chimera, CF (R&D Systems Cat#3647-TK) (human).
T5 chain: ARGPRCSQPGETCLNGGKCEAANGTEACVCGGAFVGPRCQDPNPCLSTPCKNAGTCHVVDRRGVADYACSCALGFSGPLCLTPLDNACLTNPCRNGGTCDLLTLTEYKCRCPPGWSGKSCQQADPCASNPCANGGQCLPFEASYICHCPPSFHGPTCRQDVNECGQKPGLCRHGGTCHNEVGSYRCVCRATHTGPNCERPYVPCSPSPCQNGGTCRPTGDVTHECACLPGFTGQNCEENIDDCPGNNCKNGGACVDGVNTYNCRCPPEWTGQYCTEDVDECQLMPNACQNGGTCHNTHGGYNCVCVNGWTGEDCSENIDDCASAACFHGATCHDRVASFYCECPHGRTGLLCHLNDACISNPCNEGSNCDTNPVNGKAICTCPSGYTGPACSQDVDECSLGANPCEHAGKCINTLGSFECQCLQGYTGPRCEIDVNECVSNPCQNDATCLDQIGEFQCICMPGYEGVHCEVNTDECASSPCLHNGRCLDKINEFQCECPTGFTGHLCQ
The description is as above.

The target in test [6] is T6, rHuman Notch-1/Fc Chimera, CF (R&D Systems Cat#3647-TK) (human, UniProt P46531 19-526).
T6 construct: Bought recombinant protein; not shown: Fc of the bought chimera
Nature of the test: MSD ECL multispot assay, antigen spotted on plate, Fab in solution; blank spot of this row 166.

For test [7], the target named is T7, rHuman IGF-1 sR (insulin-like growth factor-1 soluble receptor), CF (R&D Systems Cat#391-GR) (human, UniProt P08069 31-932).
T7 construct: Bought recombinant soluble receptor
The description is as above.

Test [8] has as its target T8, rHuman P-Cadherin/Fc Chimera, CF (R&D Systems Cat#861-PC) (human, UniProt P22223 108-654).
T8 construct: Bought recombinant protein; not shown: Fc of the bought chimera
The test is described as above.

Test [9] has as its target T9, rHuman Erythropoietin R/Fc Chimera, CF (R&D Systems Cat#963-ER) (human, UniProt P19235 25-250).
T9 construct: Bought recombinant protein; also called EPO R; EPO R/Fc; not shown: Fc of the bought chimera
T9 sequence (looked up): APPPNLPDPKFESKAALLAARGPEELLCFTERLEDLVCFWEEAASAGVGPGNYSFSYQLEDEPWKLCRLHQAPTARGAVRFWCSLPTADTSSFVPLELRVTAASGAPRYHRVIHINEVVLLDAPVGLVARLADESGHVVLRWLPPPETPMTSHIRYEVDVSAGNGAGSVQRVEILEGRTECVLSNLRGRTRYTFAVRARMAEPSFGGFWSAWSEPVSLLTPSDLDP
Described as above.

Test [10] deals with T10, rHuman HGF R/c-MET/Fc Chimera, CF (R&D Systems Cat#358-MT/CF) (human, UniProt P08581 25-932).
T10 construct: Bought recombinant protein; also called HGF R/Fc; not shown: Fc of the bought chimera
The test is described as above.

The target of test [11] is T11, rHuman CD44/Fc Chimera, CF (R&D Systems Cat#3660-CD) (human, UniProt P16070 21-220).
T11 construct: Bought recombinant protein; not shown: Fc of the bought chimera
The description is as above.

In test [12] the target is T12, Recombinant Human DLL4 (R&D Systems Cat#1506-D4/CF) (human, UniProt Q9NR61 27-524).
T12 construct: Bought recombinant protein; also called delta-like protein 4; rHuman DLL4
The description is as above.

Test [13] addresses T1, rHuman CD44/Fc Chimera, CF (R&D Systems …). Description: ECL Multispot (MSD), antigen spotted on plate, Fab in solution; blank spot 241.
Test [14] has as its target T3, rHuman P-Cadherin/Fc Chimera, CF (R&D …). The description is as above.
The target in test [15] is T4, rHuman Erythropoietin R/Fc Chimera, CF …. The test is described as above.
Test [16] deals with T5, rHuman Notch-1/Fc Chimera, CF (R&D …). The test is described as above.
The target in test [17] is T1, rHuman CD44/Fc Chimera, CF (R&D Systems …). Nature of the test: ECL Multispot (MSD), antigen spotted on plate, Fab in solution; blank spot 169.
Test [18] addresses T2, rHuman HGF R/c-MET/Fc Chimera, CF (R&D …). The description is as above.
Test [19] concerns the target T3, rHuman P-Cadherin/Fc Chimera, CF (R&D …). Described as above.
For test [20], the target named is T4, rHuman Erythropoietin R/Fc Chimera, CF …. Described as above.
For test [21], the target named is T5, rHuman Notch-1/Fc Chimera, CF (R&D …). The test is described as above.
Test [22] deals with T1, rHuman CD44/Fc Chimera, CF (R&D Systems …). Description: ECL Multispot (MSD), antigen spotted on plate, Fab in solution; blank spot 200.
Test [23] deals with T2, rHuman HGF R/c-MET/Fc Chimera, CF (R&D …). Described as above.
Test [24] has as its target T3, rHuman P-Cadherin/Fc Chimera, CF (R&D …). The description is as above.
In test [25] the target is T4, rHuman Erythropoietin R/Fc Chimera, CF …. The description is as above.
In test [26] the target is T5, rHuman Notch-1/Fc Chimera, CF (R&D …). The description is as above.

B1: Fab VH1-46_IGHD6-6*01_IGHJ1*01 S102A/S103P/S104F/H111F (APFF) & L6_IGKJ1*01 S92P (Fab, V domains shown)
VH: QVQLVQSGAEVKKPGASVKVSCKASGYTFTSYYMHWVRQAPGQGLEWMGIINPSGGSTSYAQKFQGRVTMTRDTSTSTVYMELSSLRSEDTAVYYCAREEYAPFSAEYFQFWGQGTLVTVSS
VL: EIVLTQSPATLSLSPGERATLSCRASQSVSSYLAWYQQKPGQAPRLLIYDASNRATGIPARFSGSGSGTDFTLTISSLEPEDFAVYYCQQRPNWPPWTFGQGTKVEIKR
notes: also called APFF / S92P
For B1, the ECL signal in test [1] amounted to 282; in test [2], 242; in [3], 354; in test [4], 391; in test [5] it was 346.

B2: Fab VH1-46_IGHD6-6*01_IGHJ1*01 S102A/S103P/S104F/H111F (APFF) & L6_IGKJ1*01 S92P (Fab, V domains shown)
VH: QVQLVQSGAEVKKPGASVKVSCKASGYTFTSYYMHWVRQAPGQGLEWMGIINPSGGSTSYAQKFQGRVTMTRDTSTSTVYMELSSLRSEDTAVYYCAREEYAPFSAEYFQFWGQGTLVTVSS
VL: EIVLTQSPATLSLSPGERATLSCRASQSVSSYLAWYQQKPGQAPRLLIYDASNRATGIPARFSGSGSGTDFTLTISSLEPEDFAVYYCQQRPNWPPWTFGQGTKVEIKR
notes: Fab; also called APFF / S92P
Regarding B2, the ECL signal in [6] is 328; in [7], 280; in test [8], 307; in test [9], 385; in test [10], 256; in [11], 292. Also, the ECL signal in [12] came to 446.

B3: Fab VH1-46_IGHD6-6*01_IGHJ1*01 S102A/S103P/S104F/H111F (APFF) & L6_IGKJ1*01 W94M (Fab, V domains shown)
VH: QVQLVQSGAEVKKPGASVKVSCKASGYTFTSYYMHWVRQAPGQGLEWMGIINPSGGSTSYAQKFQGRVTMTRDTSTSTVYMELSSLRSEDTAVYYCAREEYAPFSAEYFQFWGQGTLVTVSS
VL: EIVLTQSPATLSLSPGERATLSCRASQSVSSYLAWYQQKPGQAPRLLIYDASNRATGIPARFSGSGSGTDFTLTISSLEPEDFAVYYCQQRSNMPPWTFGQGTKVEIKR
notes: also called APFF / W94M
With B3, the ECL signal is 327 in test [13], 346 in test [14], 435 in [15] and 321 in test [16].

B4: Fab VH1-46_IGHD6-6*01_IGHJ1*01 S102A/S103P/S104F/H111F (APFF) & L6_IGKJ1*01 W94P (Fab, V domains shown)
VH: QVQLVQSGAEVKKPGASVKVSCKASGYTFTSYYMHWVRQAPGQGLEWMGIINPSGGSTSYAQKFQGRVTMTRDTSTSTVYMELSSLRSEDTAVYYCAREEYAPFSAEYFQFWGQGTLVTVSS
VL: EIVLTQSPATLSLSPGERATLSCRASQSVSSYLAWYQQKPGQAPRLLIYDASNRATGIPARFSGSGSGTDFTLTISSLEPEDFAVYYCQQRSNPPPWTFGQGTKVEIKR
notes: also called APFF / W94P
Regarding B4, the ECL signal in [17] turned out to be 241; in test [18] it was 275; in test [19] it was 268; in test [20] it was 292; in test [21] it was 228.

B5: Fab VH1-46_IGHD6-6*01_IGHJ1*01 S102A/S103P/S104F/H111F (APFF) & L6_IGKJ1*01 W94L (Fab, V domains shown)
VH: QVQLVQSGAEVKKPGASVKVSCKASGYTFTSYYMHWVRQAPGQGLEWMGIINPSGGSTSYAQKFQGRVTMTRDTSTSTVYMELSSLRSEDTAVYYCAREEYAPFSAEYFQFWGQGTLVTVSS
VL: EIVLTQSPATLSLSPGERATLSCRASQSVSSYLAWYQQKPGQAPRLLIYDASNRATGIPARFSGSGSGTDFTLTISSLEPEDFAVYYCQQRSNLPPWTFGQGTKVEIKR
notes: also called APFF / W94L
For the molecule B5, the ECL signal in test [22] is 309; in test [23], 187; in [24], 296; in [25], 333; in test [26], 369.
